# Reference: the DeepSol protein solubility set
# Assay: soluble on expression in E. coli; label from the status in PepcDB or PDB records
row,Sequence,soluble on expression in E. coli
1,MSALYRRFRPLTFQEVVGQEHVKEPLLKAIREGRLAQAYLFSGPRGVGKTTTARLLAMAVGCQGEDPPCGVCPHCQAVQRGAHPDVVEIDAASNNSVEDVRELRERIHLAPLSAPRKVFILDEAHMLSKSAFNALLKTLEEPPPHVLFVFATTEPERMPPTILSRTQHFRFRRLTEEEIAFKLRRILEAVGREAEEEALLLLARLADGALRDAESLLERFLLLEGPLTRKEVERALGLPPREALAEIAASLARGKTAEALGLARRLYGEGYAPRSLVSGLLEVFREGLYAAFGLAGTPLPAPPQALIAAMTALDEAMERLARRSDALSLEVALLEAGRALAAEALPQPTGAPSPEVGPKPESPPAPEPPRPEEAPDLRERWRAFLEALRPTLRAFVREARPEVREGQLCLAFPEDKAFHYRKASEQKARLLPLAQAHFGVEEVVLVLEGEKKSLSPRPRPAPPPEAPAPPGPPEEEVEAEEAAEEAPEEALRRVVRLLGGRVLWVRRPRTREAPEEEPLSQDEIGGTGI,soluble
2,GMSTPTPDTDVEQVGLANTAFYEAMERGDFETLSSLWLTPADLGVDEEYHDPADAGVVSCVHPGWPVLSGRGEVLRSYALIMANTEYIQFFLTDVHVSVTGDTALVTCTENILSGGPPPDDSDELGPLVGQLVVATNVFRRTPDGWKLWSHHASPVLAETGAEEGDESPD,soluble
3,RNAAHQLYYRPTPDDGYLLAGYPWFDVRARDLFVALPGCTLCVEAPERFERIVNTVIPAMERYMRLHEDDDTIHGLHEPDVGIWAIWAIQQYARRNGLEAAKRFGSFVSEVVSYYLSAQHPTAQIRENGLLYVLGTGFPLSWMDAKLNGKAVIPREGYLVELNALWYNALCFERELNGEKPEIGEIISRIERSFPDTFLNCYNYLFDYVQDGKAQDWSVRPNMLFAISLPYSPLQRDRQLQVLEIITRELLTPKGLRSLSPKSEGYRPYCRGKQEERELAYYNGSVWPWLLGQYTEAYLRLYGNSGVTFLERMLIGMEEELQMHGIGTISELFDGNPPFMGRGAISFAMSVGEILRAKELLNRTESDMHLSVRHMYNYTKWKG,not soluble
4,YRENDPRLQLAFKLFLDGCTDKEVEQQTGINRRTFRRYRMKYGITNSLRHKND,not soluble
5,MGSDKIHHHHHHMNSIQLKAVSFSREQPLFEKTNLAIPQGTFSLLIGDSGSGKSTLLRLIAGFAPLDYQGEILIEGMERRQLSTREKAQKIGMLFQNPSQQFTMKTLERELIFALENLGIPPEEMNRKIQTALQLVQTQTLFTRELATLSGGEKQKAALTVLLAMNPDILLLDEPFASIDPTSRKQFIQILARLHQAGKTILVCDHDFSDYADVVDQVVTLKNGQFEKQPLTFIKTKPQTFQLTTSVVKQPMLQLKNFRLSQGKRVLLEEKEALLFKGITTLTGPNGAGKSTLLKAIVQRQKYQGKMFLAGRRLRASKKLYQHMTLAVQQANRQFVTLTLREELLFGQNMTAEKRRKQEEALTFLGLKEKLEHSVFQLSEGQKKMVQLISLLSLDLDCLLLDEPFAGLDERACNYFVEWIKEKSAQQDFLIVTHRLEPLSGVSNYRIELLQQQLIIWQEGTTCK,not soluble
6,MGSDKIHHHHHHMTNLGTAKNFWDATLYQDKHSFVWQYGEDLLQLLNPQPGEFILDLGCGTGQLTEKIAQSGAEVLGTDNAATMIEKARQNYPHLHFDVADARNFRVDKPLDAVFSNAMLHWVKEPEAAIASIHQALKSGGRFVAEFGGKGNIKYILEALYNALETLGIHNPQALNPWYFPSIGEYVNILEKQGFDVTYAALFNRPTTLAEGEFGMANWIQMFASAFLVGLTPDQQVQLIRKVEATLQDKLYHQESWTADYRRIRIVSIKAQ,not soluble
7,MVLDSGTQVYEQAPPRPPAGSPSQHHKLKPSNGNGPPLYPWPESLGMPLALAVPSALQQQTMWQTFSKLHLEQSSHMRRSESTYSVNSTGRRGRGKAPIGRGCDPGGTLRPAASLPHIAKIRKDVGSSSSKSPCMLVALRPTNMDQEREKFFQSHYTYNPQFEYQEPMPMSVLEKYQEASAQFMNQAVGIIEAVLEKFGTYENFEAATGGQLLTKCQIWSTVRKYMQKEGCVGEIVVQLSEDLLSQAVMMVENSRPTLAINLTGARQYWLEGMLRHEIGTHYLRGVNNSRQPWHSTEGRLQYGLQPANPTEEGLASLHSVLFRKQPFLWRAALLYYTIHQAAHMSFRQLFQDLAQYVQDEGVRWEYCVRAKRGQTDTSQPGCFSKDQVYLDGILRILRHRHTIDFQLLTSLGKVSYEDVEQLRPYGVLDNTRVPHFMKDLERYRQQLEHIMTTNRLDEAELGRLLPD,soluble
8,MGQNSSQIPEHELEHLSIESGLSRGGILKLYGRFISLATHRDKTTNEYFLTKGDFQSIAELKQNPLGDRIIDAFFADAEVLERRKVYFKDFVKVLSHFRPINKNKPHPWNSREAKLRFAFTMYDLNKSGTITKDEFQDILAMMIGVGVPKDQVNSIADRTMREADRDGDGFITFQEFCNAMEKTDIEQKMSFRFLT,not soluble
9,MSVFHDEVEIEDFEFDEEKDVYHYPCPCGDRFEIPREMLEMGEDVAQCPSCSLLIRVIYDPEDFVKLETISTSKPIAEPV,not soluble
10,MPTKGRVFVLGHSQDKDCVSRETGRRTTSITVPRDKCGVETVQHGKGAGYTSSVNIVISFHDKFLTKVDRAYNITCLYAPTGDVVSYALTVQPSLLKDIQVLAEQPSCEYEVFDVRTRRPAEIVHVNAPLEHVWTCDGTNLDLFCMTVHDCVINEGKSKRRSKIIDSEGCSLDTTRLPNLRYENNKLSARVMSKAFRFGDDVAVEFECNVRLDLRNGTSCPRPRC,not soluble
11,MIAGATAPSSQHEILIASNLIKKPSTSQNKTPTAQSSSGNNGAADGAPQGYHHHHHHHRHLWWPRTTDHQYWCVLRKNQFAYYKTRDEREAISVIPRFDILNFKISELDGILTVYTPSKDLIFKFPRGQNEKVGMELMHNWKIALEKFLSSPSGNESVTTGSDYDEEEDDDDLIVVDEKAGPSSSKHSCSLTMDEQLSREDKEFYRMFDPRNAEHQVCSGILYTKVKKKKLFNRAKWQKFNVELTNTSFNLYSFKTGKLKKSIKLDKIIDCIELDNNSKMKNDDTNFALITFDERLSFKAANDQDMVDWIINFKSGILIRKKLKAENI,soluble
12,MSLTPLMVNGILGESVTLPLEFPAGEKVNFITWLFNETSLAFIVPHETKSPEIHVTNPKQGKRLNFTQSYSLQLSNLKMEDTGSYRAQISTKTSAKLSSYTLRILRQLRNIQVTNHSQLFQNMTCELHLTCSVEDADDNVSFRWEALGNTLSSQPNLTVSWDPRISSEQDYTCIAENAVSNLSFSVSAQKLCE,soluble
13,EQKVEAFNIQYKSRTSFKVQVKLNAQGKYQKSQVQSYLQQIGLNDGDLKQESGTLSADLIFTYTVPESNLFSRKNFDTLMKKINFNTTLKIDMVGKDEIMKKILQSTTFTNNLSSQTFQDQSIDLLPYLLYS,not soluble
14,MTELKDRLQVADKEKWNLTDIYDTIEDWESDFHKIEVLTNELHEFNGNIHDGNSLLAYLTKSEEISSIISLMFAYARLQSDLDTRDTDAQSLVDKVSQLHVKVSAAKSFFSPFLLSVDENTLHTYIEEAEGLQYYKEDLFELYRYKKHVLNKDQEEILSQMGEALSSPQHTYGMLNNADILFGEVTSNDGEKVTLTRGMYAKLIEDESREKRKEAYKAYYKPYVQLKNSIASTLSAAIKNNVTVSKLRKYPSALEKSLFGDMVPKEVYENLIETTKKNIQSLHTYNKLRKEKLNVDELRQYDLSVDLVQGVKQDIPYDNAFDIMIESLAPLGEEYIETLKSFKDKRYIDVRETPGKCSGAYNFGVYGVHPFILLNHHDDLNSLFTLTHECGHGMHTHYSHGYQPRISAHYTIFVAEVASTVNEVLLIHHLLKEAKDANVRNHLVNHFIEKFKGTFFTQIMFAEFEKITHEMAQQGKPLNAQVFSDVYENLFREYNGDSLVFDEEVKYGWARIPHFYRPFYVYKYATGFASAIQIADKLLSGDPNAQKNYLEFLKGGSSDYPLNLLKKAGVDLTTPEPIESALNRFSELVEEFSTL,not soluble
15,MGSDKIHHHHHHMQLPISQYNELLQKKLEKLTALLHPFNAPDIQVFDSPTSHYRMRAEFRIWHEQDDFYHIMFDQATLQRYRVDEFPIASMLINRMMQTLLPLLKQQEVLHKKLFQIDYLSTLSNKIIVSLLYHKTLTEEWESAAKNLKDLLEKQDFDVQIIGRASKQKICFEQDYVDEVLPVNGRNYVYRQVENSFTQPNATVNCKMLEWAIDCTQNSEGDLLELYCGNGNFSIALAQNFRKVLATEIAKPSVAAAQFNIAENKVDNLQIIRMSAEEFTQAMNGVRAFNRLKGIDLKSYECNTIFVDPPRAGLDPDTVKLVQNYDRILYISCNPHTLCDNLVELSKTHRIEKAALFDQFPYTDHMESGLWLIRK,not soluble
